T1: mouse NOXO1 SH3AB–E (tandem SH3 domains plus the C-terminal portion of NOXO1) (mouse, UniProt Q8VCM2 160-349)
T1 construct: mouse NOXO1, tandem SH3 domains plus the C-terminal portion; source: E. coli BL21 STAR, purified (glutathione Sepharose, PreScission cleavage, Superdex 75)
T1 sequence (looked up): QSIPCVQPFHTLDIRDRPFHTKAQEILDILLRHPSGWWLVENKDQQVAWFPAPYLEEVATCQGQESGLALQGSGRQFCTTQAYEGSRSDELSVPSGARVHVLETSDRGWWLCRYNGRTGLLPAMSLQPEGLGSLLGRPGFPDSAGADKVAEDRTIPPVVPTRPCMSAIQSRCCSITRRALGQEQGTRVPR

T2: human p22^phox cytoplasmic domain (p22^phoxC) (human)
T2 construct: human p22phox, cytoplasmic domain; source: E. coli BL21 STAR, purified (glutathione Sepharose, PreScission cleavage, Superdex 75)
T2 sequence (P13498 whole entry, looked up): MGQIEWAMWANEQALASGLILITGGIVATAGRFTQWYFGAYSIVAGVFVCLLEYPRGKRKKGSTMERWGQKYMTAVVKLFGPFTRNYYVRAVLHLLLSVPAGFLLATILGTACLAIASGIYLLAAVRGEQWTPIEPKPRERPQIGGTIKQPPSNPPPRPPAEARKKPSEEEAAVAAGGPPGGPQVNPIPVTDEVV

B1: mouse p22^phox cytoplasmic domain (p22^phoxC) (domain or fragment, UniProt Q61462 127-192, looked up)
chain: RGEQWTPIEPKPKERPQVGGTIKQPPTNPPPRPPAEVRKKPSEGEEEAASAGGPQVNPMPVTDEVV
notes: mouse p22phox, cytoplasmic domain; also called murine p22^phox; source: E. coli BL21 STAR, purified (glutathione Sepharose, PreScission cleavage, Superdex 75)
B2: peptideA (amino acids 319–347 of human NOXO1) (peptide)
peptide: TAPPPTVPTRPSPGAIQSRCCTVTRRALE
notes: also called long version of peptideA; source: synthetic peptide
B3: mouse NOXA1 SH3 domain (domain or fragment, UniProt Q8CJ00 369-428, looked up)
chain: PVLYQVVAQYNYRAQRPEDLDFHQGDTVDVLCEVDEAWLEGHRDGCVGIFPKCFVVPAGA
notes: mouse NOXA1, carboxy-terminal SH3 domain; source: E. coli BL21 STAR, purified (glutathione Sepharose, PreScission cleavage, Superdex 75)
B4: human NOXO1 SH3AB–E (tandem SH3 domains plus the C-terminal portion of NOXO1) (domain or fragment)
chain: LEAQSLRCLQPFCTQDTRDRPFQAQAQESLDVLLRHPSGWWLVENEDRQTAWFPAPYLEEAAPGQGREGGPSLGSSGPQFCASRAYESSRADELSVPAGARVRVLETSDRGWWLCRYGDRAGLLPAVLLRPEGLGALLSGTGFRGGDDPAGEARGFPEPSQATAPPPTVPTRPSPGAIQSRCCTVTRRALERRPRRQGRPRGCVDSVPHPTTEQ
B5: shorter version of peptideA, which only contains the proline rich region (peptide)
peptide: TAPPPTVPTRPS
notes: also called PeptideA-short; short proline-rich motif-containing version of peptideA; source: synthetic peptide
B6: human NOXA1 SH3 domain (domain or fragment, UniProt Q86UR1 399-458, looked up)
chain: PVLYQVVAQHSYSAQGPEDLGFRQGDTVDVLCEVDQAWLEGHCDGRIGIFPKCFVVPAGP
notes: human NOXA1, carboxy-terminal SH3 domain; source: E. coli BL21 STAR, purified (glutathione Sepharose, PreScission cleavage, Superdex 75)

Assays:
Experiment in all cases: ITC; MicroCal VP-ITC, 18°C; 150 mM NaCl, 1 mM DTT, 50 mM HEPES pH 7.4; typically 20–40 µM protein in the cell, 200–300 µM ligand injected; single-site binding model; averaged over three to five experiments
Conditions in all cases: both partners purified
[1] = biological target: T1, mouse NOXO1 SH3AB–E (tandem SH3 domains …)
mouse NOXA1 SH3 domain = biological target: B3
human NOXA1 SH3 domain = biological target: B6
[2] = biological target: T1, mouse NOXO1 SH3AB–E (tandem SH3 domains …); remark: listed apart in the source
[3] = biological target: T2, human p22^phox cytoplasmic domain …
[4] = biological target: B4

Binder: B1
Kd [1]: 0.78 µM | dH [1]: -7.1 ± 0.05 kcal/mol

Binder: B2
Kd (mouse NOXA1 SH3 domain): 5.9 µM | dH (mouse NOXA1 SH3 domain): -7.6 ± 0.3 kcal/mol | Kd (human NOXA1 SH3 domain): 5.8 µM | dH (human NOXA1 SH3 domain): -12.6 ± 0.6 kcal/mol

Binder: B3
Kd [2]: 2.2 µM | dH [2]: -10.1 ± 0.8 kcal/mol

Binder: B4
Kd (human NOXA1 SH3 domain): 7.2 µM | Kd [3]: 17.5 µM

Binder: B5
Kd (human NOXA1 SH3 domain): > 70 µM

Binder: B6
dH [4]: -8.6 ± 0.7 kcal/mol

From paper PMC2864300, “Regulation of NOXO1 Activity through Reversible Interactions with p22^phox and NOXA1” (PLoS ONE, 2010)
